Data reported in US7585638B2, “Test system for measuring the interaction of STAT 6 with NCoA-1” (Boehringer Ingelheim International GmbH, priority 2001, dated 2009).

Tests used:
[1] = target: T1, interaction of STAT6 and NCoA-1 (Mus musculus, UniProt P70365); test: GST pull-down assay of [35S]-labeled NCoA-1 with GST-STAT6-TAD in presence of peptides; format: binding, human; settings: 100 μg peptide; 4 μg GST-STAT6-TAD; SDS-PAGE and fluorography
T1 construct: made in house; host or cells: E. coli for GST-STAT6-TAD
T1 sequence (P70365 whole entry): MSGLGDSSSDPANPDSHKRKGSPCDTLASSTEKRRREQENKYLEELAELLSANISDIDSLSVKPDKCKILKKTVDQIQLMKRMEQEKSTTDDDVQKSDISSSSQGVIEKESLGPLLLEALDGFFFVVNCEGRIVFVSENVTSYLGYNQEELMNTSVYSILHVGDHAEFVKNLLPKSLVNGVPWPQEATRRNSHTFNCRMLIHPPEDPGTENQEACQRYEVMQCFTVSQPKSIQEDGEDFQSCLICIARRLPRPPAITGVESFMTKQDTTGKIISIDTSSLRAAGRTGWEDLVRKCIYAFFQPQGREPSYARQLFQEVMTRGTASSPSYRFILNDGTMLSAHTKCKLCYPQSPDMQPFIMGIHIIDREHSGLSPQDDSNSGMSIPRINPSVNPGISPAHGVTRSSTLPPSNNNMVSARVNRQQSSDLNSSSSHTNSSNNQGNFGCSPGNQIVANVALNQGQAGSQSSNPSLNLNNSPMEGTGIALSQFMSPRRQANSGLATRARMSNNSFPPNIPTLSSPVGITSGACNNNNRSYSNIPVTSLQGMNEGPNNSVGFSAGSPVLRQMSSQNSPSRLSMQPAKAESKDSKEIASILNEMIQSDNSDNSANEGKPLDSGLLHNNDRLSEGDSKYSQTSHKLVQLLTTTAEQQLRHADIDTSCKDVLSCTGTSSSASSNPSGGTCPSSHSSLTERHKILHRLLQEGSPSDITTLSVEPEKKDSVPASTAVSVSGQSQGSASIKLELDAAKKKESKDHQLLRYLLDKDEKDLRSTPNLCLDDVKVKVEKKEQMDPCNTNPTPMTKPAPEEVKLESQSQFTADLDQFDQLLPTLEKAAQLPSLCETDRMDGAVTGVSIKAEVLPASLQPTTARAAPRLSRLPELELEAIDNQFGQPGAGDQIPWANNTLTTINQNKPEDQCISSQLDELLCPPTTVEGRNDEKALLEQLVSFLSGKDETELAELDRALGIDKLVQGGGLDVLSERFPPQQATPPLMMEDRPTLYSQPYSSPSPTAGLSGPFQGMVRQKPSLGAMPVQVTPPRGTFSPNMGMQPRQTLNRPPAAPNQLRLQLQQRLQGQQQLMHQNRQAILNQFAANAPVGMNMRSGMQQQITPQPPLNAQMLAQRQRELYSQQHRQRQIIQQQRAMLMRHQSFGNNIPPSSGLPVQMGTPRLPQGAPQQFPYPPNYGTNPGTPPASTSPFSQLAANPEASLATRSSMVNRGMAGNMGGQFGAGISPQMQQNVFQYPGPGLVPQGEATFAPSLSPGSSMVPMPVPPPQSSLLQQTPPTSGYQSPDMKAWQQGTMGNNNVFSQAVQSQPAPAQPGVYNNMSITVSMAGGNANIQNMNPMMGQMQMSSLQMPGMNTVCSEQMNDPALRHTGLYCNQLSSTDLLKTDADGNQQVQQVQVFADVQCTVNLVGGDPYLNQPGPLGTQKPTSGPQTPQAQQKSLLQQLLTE
Method: 4 μg GST or GST-STAT6-TAD fusion protein purified from E. coli, are bound to 20 μl glutathione-Sepharose and are incubated with 1.5 μl [^35S]-labeled NCoA-1 in the presence of 100 μg peptide 1, or peptide 2, or peptide 3 respectively, as indicated. Material bound to the glutathione-Sepharose is recovered from the binding reaction, extensively washed and analyzed by SDS-PAGE and fluorography (lanes 2-6). Input control in lane 1 reflects 10% of the total amount of ^35S-labeled NCoA-1 used in the experiments.

GST-STAT6 (aa 677-847) = target: T2, GST-STAT6 (aa 677-847) (Homo sapiens, UniProt P42226); test: STAT6/NCoA-1-ELISA (His-NCoA-1 bound to coated GST-STAT6); format: binding; settings: 500 ng GST-STAT6 (677-847) coated, 250 ng His-NCoA-1 (212-463) added; α-Penta-His and α-mouse-HRP; average of three experiments
T2 construct: made in house; host or cells: E. coli
T2 sequence (P42226 with tags, fused parts or gaps): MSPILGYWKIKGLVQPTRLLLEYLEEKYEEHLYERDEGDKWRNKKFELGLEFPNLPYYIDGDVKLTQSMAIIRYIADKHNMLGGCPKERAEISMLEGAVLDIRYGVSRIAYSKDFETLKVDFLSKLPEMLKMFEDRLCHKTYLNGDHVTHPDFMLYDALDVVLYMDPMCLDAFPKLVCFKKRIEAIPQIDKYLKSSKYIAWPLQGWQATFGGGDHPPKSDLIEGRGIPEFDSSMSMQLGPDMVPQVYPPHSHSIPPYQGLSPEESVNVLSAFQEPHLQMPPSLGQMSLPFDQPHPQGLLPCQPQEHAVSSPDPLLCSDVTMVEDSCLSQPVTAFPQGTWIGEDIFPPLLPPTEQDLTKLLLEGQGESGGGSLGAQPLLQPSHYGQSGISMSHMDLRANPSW
Method: The following is an illustration of how an interaction of STAT6 with NCoA-1 can be performed in order to identify a substance which can modulate said interaction.
Substrate solution: dissolve a phosphate citrate buffer tablet (Sigma) in 100 ml water to obtain 0.05 M phosphate citrate buffer pH 5.5. Dissolve a tablet of o-Phenylendiamine dihydrochloride (Sigma) in 30 ml of phosphate citrate buffer in the dark. Prior to use add 30 μl of 30% H2O2. Recombinant Proteins: GST-STAT6 aa 677-847 and His-tagged NCoA-1 aa 212-463 are expressed in E. coli, purified by affinity-chromatografie and dialyzed against 1×PBS according to the art. Sequences of Recombinant Proteins: GST-STAT6 aa 677-847 protein, SEQ ID NO:1 His-tagged NCoA-1 aa 212-463, SEQ ID NO: 3 Antibodies: 1. Antibody: Penta-His, Quiagen (Cat. No. 34660) 2. […] Determine the optical density of each well within 15 minutes, using an ELISA reader set to […]. […]
500 ng of E. coli expressed and affinity purified GST-STAT6 TAD (amino acid, aa 677-847) is coated to 96 well ELISA-plates as indicated. After incubation with 250 ng of E. coli expressed, affinity purified His-NCoA-1 (aa 212-463), bound protein is detected by mouse anti-His-antibody and peroxidase coupled sheep anti-mouse-antibody as indicated. […] Conversion of peroxidase substrate O-phenylenediamine is measured at 492 nm. […]

Extinction 493 nm (GST-STAT6 (aa 677-847))	Molecule	binding of GST-STAT6-TAD with NCoA-1 in presence of peptide [1]
–	peptide 1: peptide derived from the STAT6 trans-activation domain, amino acid 794 to 814, SEQ ID NO: 6, contains LXXLL motif (LLPPTEQDLTKLLLEGQGESG; Part of SEQ ID 5; listed as Homo sapiens)	less binding
–	peptide 2: peptide derived from the STAT6 trans-activation domain, amino acid 817 to 830 (SLGAQPLLQPSHYG; UniProt P42226 817-830, looked up, fragment)	does not alter the binding capacity of GST-STAT6-TAD with NCoA-1 significantly
–	peptide 3: peptide derived from the STAT6 trans-activation domain, amino acid 830 to 847 (GQSGISMSHMDLRANPSW; UniProt P42226 830-847, looked up, fragment)	does not alter the binding capacity of GST-STAT6-TAD with NCoA-1 significantly
0.795	His-NCoA-1: His-tagged NCoA-1 fragment aa 212-463, expressed in E. coli, affinity purified, SEQ ID NO: 3 (protein, His tag) MHHHHHHSSGLVPRGSGMKETAAAKFERQHMDSPDLGTDDDDKAMGYLWIQEACQRYEVMQCFTVSQPKSIQEDGEDFQSCLICIARRLPRPPAITGVESFMTKQDTTGKIISIDTSSLRAAGRTGWEDLVRKCIYAFFQPQGREPSYARQLFQEVMTRGTASSPSYRFILNDGTMLSAHTKCKLCYPQSPDMQPFIMGIHIIDREHSGLSPQDDSNSGMSIPRINPSVNPGISPAHGVTRSSTLPPSNNNMVSARVNRQQSSDLNSSSSHTNSSNNQGNFGCSPGNQIVANVALNQGQAGSLEHHHHHH	–
